Laboratory results: article PMC6727773 (Molecular Biology of the Cell, 2019)

Target: T1, His-MPDZ-PDZ1-4 (aa 1-700) WT (human, UniProt O75970-3 1-700)
T1 sequence (looked up): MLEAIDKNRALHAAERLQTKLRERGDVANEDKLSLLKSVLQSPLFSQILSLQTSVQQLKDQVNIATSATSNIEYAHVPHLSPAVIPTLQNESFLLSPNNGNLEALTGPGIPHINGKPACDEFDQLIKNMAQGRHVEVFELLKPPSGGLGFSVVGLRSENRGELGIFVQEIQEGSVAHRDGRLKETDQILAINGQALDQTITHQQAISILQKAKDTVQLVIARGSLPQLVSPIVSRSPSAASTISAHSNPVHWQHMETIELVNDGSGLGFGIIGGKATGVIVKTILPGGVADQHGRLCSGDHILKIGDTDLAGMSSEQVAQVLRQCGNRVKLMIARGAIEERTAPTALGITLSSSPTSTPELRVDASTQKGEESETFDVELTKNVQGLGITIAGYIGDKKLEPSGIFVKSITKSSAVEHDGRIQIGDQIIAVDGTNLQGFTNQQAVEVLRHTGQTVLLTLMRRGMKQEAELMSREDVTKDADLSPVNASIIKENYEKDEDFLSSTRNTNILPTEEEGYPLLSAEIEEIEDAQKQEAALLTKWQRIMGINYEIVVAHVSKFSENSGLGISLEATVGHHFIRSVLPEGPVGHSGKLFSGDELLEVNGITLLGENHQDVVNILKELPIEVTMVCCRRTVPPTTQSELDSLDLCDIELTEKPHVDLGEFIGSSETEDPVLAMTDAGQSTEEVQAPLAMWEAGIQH
Assay: pull-down

B1: GST-DAPLE (aa 1908-2028) (domain or fragment, human, UniProt Q9P219 1908-2028, looked up)
chain: IATAGAGAAAAGSGSNSQLLHFSPAAAPAARTKPKAPPRSGEVATITPVRAGLSLSEGDGVPGQGCSEGLPAKSPGRSPDLAPHLGRALEDCSRGSVSKSSPASPEPGGDPQTVWYEYGCV
  binding result: binds
